# Results: patent publication US20220098307A1 (WUHAN YZY BIOPHARMA, published 2022)
# Changes are numbered by the printed parent chain. Names may count otherwise.
# B1: CD38-M1-G2 (bispecific antibody, human IgG1, kappa)
# chain: QVQLVESGGGVVQPGRSLRLSCAASGFTFSTYAMNWVRQAPGKGLEWVARIRSKYNNYATYYADSVKDRFTISRDDSKNTLYLQMNSLRAEDTAVYYCARHGNFGNSYVSWFAYWGQGTLVTVSSGGGGSGGGGSGGGGSQTVVTQEPSLTVSPGGTVTLTCRSSTGAVTTSNYANWVQQKPGQAPRGLIGGTNKRAPGVPARFSGSLLGGKAALTLSGVQPEDEAEYYCALWYSNLWVFGGGTKVEIKGRGRGSDKTHTCPPCPAPPVAGPSVFLFPPKPKDTLMISRTPEVTCVVVDVSHEDPEVQFNWYVDGVEVHNAKTKPREEQFNSTFRVVSVLTVVHQDWLNGKEYKCKVSNKGLPAPIEKTISKTKGQPREPQVCTLPPSRDELTKNQVSLSCAVKGFYPSDIAVEWESNGQPENNYKTTPPVLDSDGSFFLVSKLTVDKSRWQQGNVFSCSVMHEALHNHYTQKSLSLSPGK
# heavy: EVQLLESGGGLVQPGGSLRLSCAVSGFTFNSFAMSWVRQAPGKGLEWVSAISGSGGGTYYADSVKGRFTISRDNSKNTLYLQMNSLRAEDTAVYFCAKDKILWFGEPVFDYWGQGTLVTVSSASTKGPSVFPLAPSSKSTSGGTAALGCLVKDYFPEPVTVSWNSGALTSGVHTFPAVLQSSGLYSLSSVVTVPSSSLGTQTYICNVNHKPSNTKVDKKVEPKSCDKTHTCPPCPAPPVAGPSVFLFPPKPKDTLMISRTPEVTCVVVDVSHEDPEVQFNWYVDGVEVHNAKTKPREEQFNSTFRVVSVLTVVHQDWLNGKEYKCKVSNKGLPAPIEKTISKTKGQPREPQVYTLPPCRDELTKNQVSLWCLVKGFYPSDIAVEWESNGQPENNYKTTPPVLDSDGSFFLYSKLTVDKSRWQQGNVFSCSVMHEALHNHYTQKSLSLSPGK
# light: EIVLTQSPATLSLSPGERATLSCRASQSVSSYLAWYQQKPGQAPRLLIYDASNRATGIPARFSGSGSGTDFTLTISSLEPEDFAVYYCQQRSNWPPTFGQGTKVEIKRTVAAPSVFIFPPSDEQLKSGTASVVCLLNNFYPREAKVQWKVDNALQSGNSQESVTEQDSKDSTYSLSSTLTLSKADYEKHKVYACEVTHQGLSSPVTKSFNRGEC
# notes: structure 1; CD38 x CD3; CH2 G2CH2
# B2: CD38-M1-G2-1 (bispecific antibody)
# chain: not shown
# heavy: B1 heavy
# light: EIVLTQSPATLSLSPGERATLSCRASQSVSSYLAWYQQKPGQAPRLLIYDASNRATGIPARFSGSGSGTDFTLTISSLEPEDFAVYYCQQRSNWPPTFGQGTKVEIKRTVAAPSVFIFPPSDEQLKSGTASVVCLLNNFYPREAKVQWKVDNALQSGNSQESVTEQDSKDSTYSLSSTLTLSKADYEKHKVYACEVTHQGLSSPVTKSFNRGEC
# notes: structure 1; CD38 x CD3 (I2C); CH2 G2CH2
# B3: CD38-M1-GG2 (bispecific antibody)
# chain: not shown
# heavy: B1 heavy with C234G
# light: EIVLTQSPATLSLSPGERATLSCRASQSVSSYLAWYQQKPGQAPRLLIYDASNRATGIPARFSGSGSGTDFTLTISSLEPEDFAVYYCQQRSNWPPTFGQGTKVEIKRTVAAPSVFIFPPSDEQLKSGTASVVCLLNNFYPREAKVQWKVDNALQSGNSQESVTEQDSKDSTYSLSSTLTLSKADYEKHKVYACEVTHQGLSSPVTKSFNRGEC
# notes: structure 1; CD38 x CD3 (I2C); CH2 GG2CH2
# B4: CD38-M1-AG2 (bispecific antibody)
# chain: not shown
# heavy: B1 heavy with C234A
# light: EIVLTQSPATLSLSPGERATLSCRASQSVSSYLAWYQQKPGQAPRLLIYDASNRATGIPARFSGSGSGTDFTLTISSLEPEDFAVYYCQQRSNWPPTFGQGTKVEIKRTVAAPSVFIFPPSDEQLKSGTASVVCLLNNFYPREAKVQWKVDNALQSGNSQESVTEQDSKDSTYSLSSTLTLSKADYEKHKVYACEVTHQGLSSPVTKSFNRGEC
# notes: structure 1; CD38 x CD3 (I2C); CH2 AG2CH2
# B5: CD38-M1-SG2-3 (bispecific antibody)
# chain: not shown
# heavy: B1 heavy with C234S
# light: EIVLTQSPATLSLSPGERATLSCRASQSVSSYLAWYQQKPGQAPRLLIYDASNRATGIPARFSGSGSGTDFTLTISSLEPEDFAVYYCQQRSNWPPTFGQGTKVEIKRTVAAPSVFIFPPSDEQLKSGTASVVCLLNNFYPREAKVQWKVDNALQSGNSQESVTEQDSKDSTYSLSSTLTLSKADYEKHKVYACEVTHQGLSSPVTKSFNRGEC
# notes: structure 1; CD38 x CD3 (I2C); CH2 SG2CH2
# B6: CD38-M1-DG2D (bispecific antibody)
# chain: not shown
# heavy: B1 heavy with D269A, D274A
# light: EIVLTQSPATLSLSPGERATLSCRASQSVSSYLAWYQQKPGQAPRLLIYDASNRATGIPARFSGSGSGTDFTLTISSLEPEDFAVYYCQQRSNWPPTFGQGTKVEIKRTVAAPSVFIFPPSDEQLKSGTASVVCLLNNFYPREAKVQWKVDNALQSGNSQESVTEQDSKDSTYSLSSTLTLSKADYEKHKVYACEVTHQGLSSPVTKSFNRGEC
# notes: structure 1; CD38 x CD3 (I2C); CH2 DG2DCH2
# B7: CD38-M1-SG2 (bispecific antibody, human IgG1, kappa)
# chain: B1 chain with C264S
# heavy: B1 heavy with C234S
# light: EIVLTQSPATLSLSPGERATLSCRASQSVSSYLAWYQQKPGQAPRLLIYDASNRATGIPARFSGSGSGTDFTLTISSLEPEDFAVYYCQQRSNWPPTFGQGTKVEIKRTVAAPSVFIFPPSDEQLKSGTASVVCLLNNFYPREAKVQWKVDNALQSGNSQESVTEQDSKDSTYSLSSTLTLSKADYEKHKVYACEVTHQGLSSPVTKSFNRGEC
# notes: structure 1; CD38 x CD3; CH2 SG2CH2
# B8: CD38-M1-PG2 (bispecific antibody)
# chain: not shown
# heavy: B1 heavy with C234P
# light: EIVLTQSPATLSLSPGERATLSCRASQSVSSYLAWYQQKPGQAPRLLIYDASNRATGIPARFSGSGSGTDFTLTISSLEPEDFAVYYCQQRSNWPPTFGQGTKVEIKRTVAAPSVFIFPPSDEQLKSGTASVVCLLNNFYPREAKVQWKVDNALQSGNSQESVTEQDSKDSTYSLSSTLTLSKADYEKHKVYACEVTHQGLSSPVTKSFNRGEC
# notes: structure 1; CD38 x CD3 (I2C); CH2 PG2CH2
# B9: CD38-M1-DG2 (bispecific antibody)
# chain: not shown
# heavy: B1 heavy with D269A
# light: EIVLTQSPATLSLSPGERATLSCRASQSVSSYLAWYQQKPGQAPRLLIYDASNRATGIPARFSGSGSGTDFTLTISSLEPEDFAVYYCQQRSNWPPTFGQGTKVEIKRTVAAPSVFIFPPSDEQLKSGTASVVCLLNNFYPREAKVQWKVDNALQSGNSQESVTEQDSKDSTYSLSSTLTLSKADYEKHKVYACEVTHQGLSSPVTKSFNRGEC
# notes: structure 1; CD38 x CD3 (I2C); CH2 DG2CH2
# B10: CD38-M1-G2D (bispecific antibody)
# chain: not shown
# heavy: B1 heavy with D274A
# light: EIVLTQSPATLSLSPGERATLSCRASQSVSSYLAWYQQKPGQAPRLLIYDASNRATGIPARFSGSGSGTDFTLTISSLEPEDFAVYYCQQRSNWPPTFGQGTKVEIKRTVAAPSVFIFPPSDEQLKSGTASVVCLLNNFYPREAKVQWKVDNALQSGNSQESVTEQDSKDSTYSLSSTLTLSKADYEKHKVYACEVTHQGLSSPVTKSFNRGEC
# notes: structure 1; CD38 x CD3 (I2C); CH2 G2DCH2
# B11: CD38-M1-FES (bispecific antibody, human IgG1, kappa)
# chain: QVQLVESGGGVVQPGRSLRLSCAASGFTFSTYAMNWVRQAPGKGLEWVARIRSKYNNYATYYADSVKDRFTISRDDSKNTLYLQMNSLRAEDTAVYYCARHGNFGNSYVSWFAYWGQGTLVTVSSGGGGSGGGGSGGGGSQTVVTQEPSLTVSPGGTVTLTCRSSTGAVTTSNYANWVQQKPGQAPRGLIGGTNKRAPGVPARFSGSLLGGKAALTLSGVQPEDEAEYYCALWYSNLWVFGGGTKVEIKGGGGSDKTHTCPPCPAPEFEGGPSVFLFPPKPKDTLMISRTPEVTCVVVDVSHEDPEVKFNWYVDGVEVHNAKTKPREEQYNSTYRVVSVLTVLHQDWLNGKEYKCKVSNKALPASIEKTISKAKGQPREPQVCTLPPSRDELTKNQVSLSCAVKGFYPSDIAVEWESNGQPENNYKTTPPVLDSDGSFFLVSKLTVDKSRWQQGNVFSCSVMHEALHNHYTQKSLSLSPGK
# heavy: EVQLLESGGGLVQPGGSLRLSCAVSGFTFNSFAMSWVRQAPGKGLEWVSAISGSGGGTYYADSVKGRFTISRDNSKNTLYLQMNSLRAEDTAVYFCAKDKILWFGEPVFDYWGQGTLVTVSSASTKGPSVFPLAPSSKSTSGGTAALGCLVKDYFPEPVTVSWNSGALTSGVHTFPAVLQSSGLYSLSSVVTVPSSSLGTQTYICNVNHKPSNTKVDKKVEPKSCDKTHTCPPCPAPEFEGGPSVFLFPPKPKDTLMISRTPEVTCVVVDVSHEDPEVKFNWYVDGVEVHNAKTKPREEQYNSTYRVVSVLTVLHQDWLNGKEYKCKVSNKALPASIEKTISKAKGQPREPQVYTLPPCRDELTKNQVSLWCLVKGFYPSDIAVEWESNGQPENNYKTTPPVLDSDGSFFLYSKLTVDKSRWQQGNVFSCSVMHEALHNHYTQKSLSLSPGK
# light: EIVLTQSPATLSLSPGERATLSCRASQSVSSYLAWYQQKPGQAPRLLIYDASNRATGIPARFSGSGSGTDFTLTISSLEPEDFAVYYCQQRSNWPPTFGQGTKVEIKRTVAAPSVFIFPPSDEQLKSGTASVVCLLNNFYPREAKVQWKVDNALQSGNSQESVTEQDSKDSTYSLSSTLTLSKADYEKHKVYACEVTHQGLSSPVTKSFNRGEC
# notes: structure 1; CD38 x CD3; CH2 FES
# B12: CD38-M1-FES-1 (bispecific antibody)
# chain: not shown
# heavy: B11 heavy
# light: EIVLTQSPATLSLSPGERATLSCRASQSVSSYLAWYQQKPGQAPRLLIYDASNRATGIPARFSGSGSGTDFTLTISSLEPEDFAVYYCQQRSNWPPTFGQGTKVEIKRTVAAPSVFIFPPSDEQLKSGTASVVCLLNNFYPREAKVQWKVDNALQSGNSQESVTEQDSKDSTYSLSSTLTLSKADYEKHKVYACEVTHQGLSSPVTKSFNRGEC
# notes: structure 1; CD38 x CD3 (I2C); CH2 FES
# B13: M1IC-G2 (bispecific antibody)
# chain: not shown
# heavy: EVKLDETGGGLVQPGRPMKLSCVASGFTFSDYWMNWVRQSPEKGLEWVAQIRNKPYNYETYYSDSVKGRFTISRDDSKSSVYLQMNNLRVEDMGIYYCTGSYYGMDYWGQGTSVTVSSASTKGPSVFPLAPSSKSTSGGTAALGCLVKDYFPEPVTVSWNSGALTSGVHTFPAVLQSSGLYSLSSVVTVPSSSLGTQTYICNVNHKPSNTKVDKKVEPKSCDKTHTCPPCPAPPVAGPSVFLFPPKPKDTLMISRTPEVTCVVVDVSHEDPEVQFNWYVDGVEVHNAKTKPREEQFNSTFRVVSVLTVVHQDWLNGKEYKCKVSNKGLPAPIEKTISKTKGQPREPQVYTLPPCRDELTKNQVSLWCLVKGFYPSDIAVEWESNGQPENNYKTTPPVLDSDGSFFLYSKLTVDKSRWQQGNVFSCSVMHEALHNHYTQKSLSLSPGK
# light: DVVMTQTPLSLPVSLGDQASISCRSSQSLVHSNGNTYLRWYLQKPGQSPKVLIYKVSNRFSGVPDRFSGSGSGTDFTLKISRVEAEDLGVYFCSQSTHVPWTFGGGTKLEIKRTVAAPSVFIFPPSDEQLKSGTASVVCLLNNFYPREAKVQWKVDNALQSGNSQESVTEQDSKDSTYSLSSTLTLSKADYEKHKVYACEVTHQGLSSPVTKSFNRGEC
# notes: structure 1 isotype control; CH2 G2CH2
# B14: M1IC-WT (bispecific antibody)
# chain: not shown
# heavy: not shown
# light: B13 light
# notes: structure 1 isotype control; CH2 WT; also called MlIC-WT
# B15: M1IC-G2D (bispecific antibody)
# chain: not shown
# heavy: B13 heavy with D270A
# light: B13 light
# notes: structure 1 isotype control; CH2 G2DCH2
# B16: M1IC-SG2 (bispecific antibody)
# chain: not shown
# heavy: B13 heavy with C230S
# light: B13 light
# notes: structure 1 isotype control; CH2 SG2CH2
# B17: M1IC-DG2D (bispecific antibody)
# chain: not shown
# heavy: B13 heavy with D265A, D270A
# light: B13 light
# notes: structure 1 isotype control; CH2 DG2DCH2; also called MlIC-DG2D
# B18: M1IC-NA (bispecific antibody)
# chain: not shown
# heavy: EVKLDETGGGLVQPGRPMKLSCVASGFTFSDYWMNWVRQSPEKGLEWVAQIRNKPYNYETYYSDSVKGRFTISRDDSKSSVYLQMNNLRVEDMGIYYCTGSYYGMDYWGQGTSVTVSSASTKGPSVFPLAPSSKSTSGGTAALGCLVKDYFPEPVTVSWNSGALTSGVHTFPAVLQSSGLYSLSSVVTVPSSSLGTQTYICNVNHKPSNTKVDKKVEPKSCDKTHTCPPCPAPELLGGPSVFLFPPKPKDTLMISRTPEVTCVVVDVSHEDPEVKFNWYVDGVEVHNAKTKPREEQYASTYRVVSVLTVLHQDWLNGKEYKCKVSNKALPAPIEKTISKAKGQPREPQVYTLPPCRDELTKNQVSLWCLVKGFYPSDIAVEWESNGQPENNYKTTPPVLDSDGSFFLYSKLTVDKSRWQQGNVFSCSVMHEALHNHYTQKSLSLSPGK
# light: B13 light
# notes: structure 1 isotype control; CH2 N297A
# B19: M1IC-PG2 (bispecific antibody)
# chain: not shown
# heavy: B13 heavy with C230P
# light: B13 light
# notes: structure 1 isotype control; CH2 PG2CH2
# B20: M1IC-FES (bispecific antibody)
# chain: not shown
# heavy: B18 heavy with L235F, L236E, A298N, P332S
# light: B13 light
# notes: structure 1 isotype control; CH2 FES
# B21: M1IC-DG2 (bispecific antibody)
# chain: not shown
# heavy: B13 heavy with D265A
# light: B13 light
# notes: structure 1 isotype control; CH2 DG2CH2
# B22: M1IC-GG2 (bispecific antibody)
# chain: not shown
# heavy: B13 heavy with C230G
# light: B13 light
# notes: structure 1 isotype control; CH2 GG2CH2
# B23: M1IC-AG2 (bispecific antibody)
# chain: not shown
# heavy: B13 heavy with C230A
# light: B13 light
# notes: structure 1 isotype control; CH2 AG2CH2
# B24: M1IC-AAG (bispecific antibody)
# chain: not shown
# heavy: not shown
# light: B13 light
# notes: structure 1 isotype control; CH2 AAG
# Biological target: T1, Monkey CD3 (monkey)
# T1 construct: whole, on cells; also called CD3 of monkey CD3 positive T cells
# Assay: flow cytometry, monkey T cells
row,Binder,EC50
1,B1,142 nM
2,B2,12.6 nM
3,B3,10.4 nM
4,B4,10.2 nM
5,B5,7.59 nM
6,B6,7.05 nM
7,B7,159 nM
8,B8,11.5 nM
9,B9,11 nM
10,B10,10.1 nM
11,B11,291 nM
12,B12,9.18 nM
13,B13,10.4 nM
14,B14,19.8 nM
15,B15,10.6 nM
16,B16,13.2 nM
17,B17,16 nM
18,B18,9.63 nM
19,B19,17.8 nM
20,B20,11.4 nM
21,B21,14.5 nM
22,B22,13 nM
23,B23,14.2 nM
24,B24,8.79 nM
